This assay concerns the target T1, H3(1-15Y)K9me3 (Homo sapiens, H3K9me3).
T1 chain: ARTKQTARKSTGGKAY
As to the kind of experiment: ITC.

For orientation: Kd means the free concentration of one partner at which half of the binding sites on the other are occupied at equilibrium, for simple one-to-one binding. A low value points to tighter binding.

B1: Su(Var)205 17-76 (protein)
chain: not shown
With B1, binding was put at a Kd of 300 nM.

Source of the values: paper PMC3265130 (2011).
